Measurements as given in US20150203577A1 (Chugai, published 2015).

T1: mouse FcγRII extracellular domain, C-terminal His tag (mouse, UniProt P08101 30-210)
T1 construct: Whole entry named; also called mFcγRII; mFcgRII
T1 sequence: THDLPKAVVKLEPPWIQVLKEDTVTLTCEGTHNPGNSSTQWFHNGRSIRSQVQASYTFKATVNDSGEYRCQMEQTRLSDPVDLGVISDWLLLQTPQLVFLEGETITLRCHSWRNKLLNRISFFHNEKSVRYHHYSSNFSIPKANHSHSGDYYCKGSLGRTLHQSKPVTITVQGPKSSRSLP

T2: mouse FcγRIII extracellular domain, C-terminal His tag (mouse, UniProt P08508 31-215)
T2 construct: Whole entry named; also called mFcγRIII; mFcgRIII
T2 chain: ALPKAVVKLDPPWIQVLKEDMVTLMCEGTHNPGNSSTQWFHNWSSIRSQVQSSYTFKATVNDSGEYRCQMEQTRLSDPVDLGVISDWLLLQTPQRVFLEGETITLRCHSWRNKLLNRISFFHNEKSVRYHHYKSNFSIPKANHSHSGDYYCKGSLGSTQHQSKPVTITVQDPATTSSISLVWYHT


How the values were obtained:
[1] = molecular target: T1, mouse FcγRII extracellular domain, …; assay: SPR (Biacore T200); KD of H237-mIgG1/MRAL-k0 / KD of variant
Excerpt: (§1) The antibody H chain variable region used was the variable region H237 (SEQ ID NO: 1) of the H chain VH3-IgG1 of the anti-IL-6 receptor antibody Fv4-IgG1 described in WO2009/125825. The antibody L chain commonly used was the L chain MRAL-k0 (SEQ ID NO: 2) of the anti-IL-6 receptor antibody tocilizumab. H237-MB716/MRAL-k0 was used as a template to introduce the alterations. These variants were expressed and purified by the method of Reference Example 1 and evaluated for their binding to mFcγRII and mFcγRIII by the method of Reference Example 2 using Biacore T200.
(§2) Each altered antibody was analyzed for its interaction with each Fcγ receptor prepared above using Biacore T100 (GE Healthcare Japan Corp.), Biacore T200 (GE Healthcare Japan Corp.), Biacore A100, or Biacore 4000. The running buffer used was HBS-EP+ (GE Healthcare Japan Corp.). The assay temperature was set to 25° C. The sensor chips used were chips prepared by immobilizing Protein L (ACTIGEN or BioVision) onto Series S Sensor Chip CM5 (GE Healthcare Japan Corp.) or Series S Sensor Chip CM4 (GE Healthcare Japan Corp.) by the amine coupling method.

[2] = molecular target: T2, mouse FcγRIII extracellular domain, …; assay: as above
Excerpt: as §1, §2

[3] = molecular target: T1, mouse FcγRII extracellular domain, …; assay: SPR (Biacore T200); KD of H237-MB716/MRAL-k0 / KD of variant
Excerpt: as §1, §2

[4] = molecular target: T2, mouse FcγRIII extracellular domain, …; assay: as above
Excerpt: as §1, §2

| Binder | relative mFcγRII-binding activity (mIgG1 = 1) [1] [fold] | relative mFcγRIII-binding activity (mIgG1 = 1) [2] [fold] | relative mFcγRII-binding activity (MB716 = 1) [3] [fold] | relative mFcγRIII-binding activity (MB716 = 1) [4] [fold] |
| --- | --- | --- | --- | --- |
| H237-MB866/MRAL-k0 (antibody, mouse IgG1, kappa, copies: 2 + 2) heavy: QVQLQESGPGLVKPSETLSLTCAVSGHSISHDHAWSWVRQPPGEGLEWIGFISYSGITNYNPSLQGRVTISRDNSKNTLYLQMNSLRAEDTAVYYCARSLARTTAMDYWGEGTLVTVSSAKTTPPSVYPLAPGSAAQTNSMVTLGCLVKGYFPEPVTVTWNSGSLSSGVHTFPAVLQSDLYTLSSSVTVPSSTWPSETVTCNVAHPASSTKVDKKIVPRDCGCKPCICEPNEVEIVFIFPPKPKDVLTITLTPKVTCVVVDISKDDPEVQFSWFVDDVEVHTAQTQPREEQFNSTFRSVSELPIMHQDWLNGKEFKCRVNSDGFPAPIEKTISKTKGRPKAPQVYTIPPPKEQMAKDKVSLTCMITDFFPEDITVEWQWNGQPAENYKNTQPIMDTDGSYFVYSKLNVQKSNWEAGNTFTCSVLHEGLHNHHTEKSLSHSPGK light: not shown | 13 | 0.18 | 3 | 3.02 |
| H237-MB867/MRAL-k0 (antibody, mouse IgG1, kappa, copies: 2 + 2) heavy: QVQLQESGPGLVKPSETLSLTCAVSGHSISHDHAWSWVRQPPGEGLEWIGFISYSGITNYNPSLQGRVTISRDNSKNTLYLQMNSLRAEDTAVYYCARSLARTTAMDYWGEGTLVTVSSAKTTPPSVYPLAPGSAAQTNSMVTLGCLVKGYFPEPVTVTWNSGSLSSGVHTFPAVLQSDLYTLSSSVTVPSSTWPSETVTCNVAHPASSTKVDKKIVPRDCGCKPCICEPNEVEIVFIFPPKPKDVLTITLTPKVTCVVVDISDDDPEVQFSWFVDDVEVHTAQTQPREEQFNSTFRSVSELPIMHQDWLNGKEFKCRVNSDGFPAPIEKTISKTKGRPKAPQVYTIPPPKEQMAKDKVSLTCMITDFFPEDITVEWQWNGQPAENYKNTQPIMDTDGSYFVYSKLNVQKSNWEAGNTFTCSVLHEGLHNHHTEKSLSHSPGK light: not shown | 35.2 | 0.85 | 8.1 | 14.3 |
| H237-MB868/MRAL-k0 (antibody, mouse IgG1, kappa, copies: 2 + 2) heavy: QVQLQESGPGLVKPSETLSLTCAVSGHSISHDHAWSWVRQPPGEGLEWIGFISYSGITNYNPSLQGRVTISRDNSKNTLYLQMNSLRAEDTAVYYCARSLARTTAMDYWGEGTLVTVSSAKTTPPSVYPLAPGSAAQTNSMVTLGCLVKGYFPEPVTVTWNSGSLSSGVHTFPAVLQSDLYTLSSSVTVPSSTWPSETVTCNVAHPASSTKVDKKIVPRDCGCKPCICEPNEVEIVFIFPPKPKDVLTITLTPKVTCVVVDISDDDPEVQFSWFVDDVEVHTAQTQPREEQFNSTFRSVSELPIMHQDWLNGKEFKCRVDSDGFPAPIEKTISKTKGRPKAPQVYTIPPPKEQMAKDKVSLTCMITDFFPEDITVEWQWNGQPAENYKNTQPIMDTDGSYFVYSKLNVQKSNWEAGNTFTCSVLHEGLHNHHTEKSLSHSPGK light: not shown | 36.6 | 0.86 | 8.4 | 14.4 |

Next, values leading:

| relative mFcγRII-binding activity (mIgG1 = 1) [1] [fold] | relative mFcγRIII-binding activity (mIgG1 = 1) [2] [fold] | relative mFcγRII-binding activity (MB716 = 1) [3] [fold] | relative mFcγRIII-binding activity (MB716 = 1) [4] [fold] | Binder |
| --- | --- | --- | --- | --- |
| 72.8 | 1.92 | 16.8 | 32.3 | H237-MB875/MRAL-k0 (antibody, mouse IgG1, kappa, copies: 2 + 2) heavy: QVQLQESGPGLVKPSETLSLTCAVSGHSISHDHAWSWVRQPPGEGLEWIGFISYSGITNYNPSLQGRVTISRDNSKNTLYLQMNSLRAEDTAVYYCARSLARTTAMDYWGEGTLVTVSSAKTTPPSVYPLAPGSAAQTNSMVTLGCLVKGYFPEPVTVTWNSGSLSSGVHTFPAVLQSDLYTLSSSVTVPSSTWPSETVTCNVAHPASSTKVDKKIVPRDCGCKPCICEPNEVEIVFIFPPKPKDVLTITLTPKVTCVVVDISDDDPEVQFSWFVDDVEVHTAQTQPREELFNSTFRSVSELPIMHQDWLNGKEFKCRVDSDGFPAPIEKTISKTKGRPKAPQVYTIPPPKEQMAKDKVSLTCMITDFFPEDITVEWQWNGQPAENYKNTQPIMDTDGSYFVYSKLNVQKSNWEAGNTFTCSVLHEGLHNHHTEKSLSHSPGK light: not shown |
| 58.7 | 1.48 | 13.5 | 24.9 | H237-MB876/MRAL-k0 (antibody, mouse IgG1, kappa, copies: 2 + 2) heavy: QVQLQESGPGLVKPSETLSLTCAVSGHSISHDHAWSWVRQPPGEGLEWIGFISYSGITNYNPSLQGRVTISRDNSKNTLYLQMNSLRAEDTAVYYCARSLARTTAMDYWGEGTLVTVSSAKTTPPSVYPLAPGSAAQTNSMVTLGCLVKGYFPEPVTVTWNSGSLSSGVHTFPAVLQSDLYTLSSSVTVPSSTWPSETVTCNVAHPASSTKVDKKIVPRDCGCKPCICEPNEVEIVFIFPPKPKDVLTITLTPKVTCVVVDISDDDPEVQFSWFVDDVEVHTAQTQPREELFNSTFRSVSELPIMHQDWLNGKEFKCRVNSDGFPAPIYKTISKTKGRPKAPQVYTIPPPKEQMAKDKVSLTCMITDFFPEDITVEWQWNGQPAENYKNTQPIMDTDGSYFVYSKLNVQKSNWEAGNTFTCSVLHEGLHNHHTEKSLSHSPGK light: not shown |
| 38.6 | 1.05 | 8.9 | 17.6 | H237-MB870/MRAL-k0 (antibody, mouse IgG1, kappa, copies: 2 + 2) heavy: QVQLQESGPGLVKPSETLSLTCAVSGHSISHDHAWSWVRQPPGEGLEWIGFISYSGITNYNPSLQGRVTISRDNSKNTLYLQMNSLRAEDTAVYYCARSLARTTAMDYWGEGTLVTVSSAKTTPPSVYPLAPGSAAQTNSMVTLGCLVKGYFPEPVTVTWNSGSLSSGVHTFPAVLQSDLYTLSSSVTVPSSTWPSETVTCNVAHPASSTKVDKKIVPRDCGCKPCICEPNEVEIVFIFPPKPKDVLTITLTPKVTCVVVDISDDDPEVQFSWFVDDVEVHTAQTQPREEQFNSTFRSVSELPIMHQDWLNGKEFKCRVNSDGFPAPIERTISKTKGRPKAPQVYTIPPPKEQMAKDKVSLTCMITDFFPEDITVEWQWNGQPAENYKNTQPIMDTDGSYFVYSKLNVQKSNWEAGNTFTCSVLHEGLHNHHTEKSLSHSPGK light: not shown |
| 41 | 0.94 | 9.4 | 15.8 | H237-MB869/MRAL-k0 (antibody, mouse IgG1, kappa, copies: 2 + 2) heavy: QVQLQESGPGLVKPSETLSLTCAVSGHSISHDHAWSWVRQPPGEGLEWIGFISYSGITNYNPSLQGRVTISRDNSKNTLYLQMNSLRAEDTAVYYCARSLARTTAMDYWGEGTLVTVSSAKTTPPSVYPLAPGSAAQTNSMVTLGCLVKGYFPEPVTVTWNSGSLSSGVHTFPAVLQSDLYTLSSSVTVPSSTWPSETVTCNVAHPASSTKVDKKIVPRDCGCKPCICEPNEVEIVFIFPPKPKDVLTITLTPKVTCVVVDISDDDPEVQFSWFVDDVEVHTAQTQPREEQFNSTFRSVSELPIMHQDWLNGKEFKCRVNSDGFPAPIYKTISKTKGRPKAPQVYTIPPPKEQMAKDKVSLTCMITDFFPEDITVEWQWNGQPAENYKNTQPIMDTDGSYFVYSKLNVQKSNWEAGNTFTCSVLHEGLHNHHTEKSLSHSPGK light: not shown |
| 61.8 | 1.67 | 14.2 | 28.2 | H237-MB871/MRAL-k0 (antibody, mouse IgG1, kappa, copies: 2 + 2) heavy: QVQLQESGPGLVKPSETLSLTCAVSGHSISHDHAWSWVRQPPGEGLEWIGFISYSGITNYNPSLQGRVTISRDNSKNTLYLQMNSLRAEDTAVYYCARSLARTTAMDYWGEGTLVTVSSAKTTPPSVYPLAPGSAAQTNSMVTLGCLVKGYFPEPVTVTWNSGSLSSGVHTFPAVLQSDLYTLSSSVTVPSSTWPSETVTCNVAHPASSTKVDKKIVPRDCGCKPCICEPNEVEIVFIFPPKPKDVLTITLTPKVTCVVVDISDDDPEVQFSWFVDDVEVHTAQTQPREELFNSTFRSVSELPIMHQDWLNGKEFKCRVNSDGFPAPIEKTISKTKGRPKAPQVYTIPPPKEQMAKDKVSLTCMITDFFPEDITVEWQWNGQPAENYKNTQPIMDTDGSYFVYSKLNVQKSNWEAGNTFTCSVLHEGLHNHHTEKSLSHSPGK light: not shown |
